Laboratory results published in patent US20040176573A1.

Columns and labels:
HLA-B7 (human) = experiment: assembly assay for peptide binding to MHC class I (HLA-B7)
HLA-A11 (human) = experiment: assembly assay: stabilisation of 35S-labelled HLA-A11 from TAP-deficient cell lysate, W6/32 immunoprecipitation, IEF gel; conditions: remark: other sources report otherwise

Question: Which C50 (HLA-B7 (human)) does the source give for RPPIFIRRL (modifications not checked) [C7] here?
Answer: The C50 was 0.5 µM.

Question: Which C50 (HLA-B7 (human)) does the source give for QPRAPIRPI (modifications not checked) [C6] here?
Answer: Its C50 is 0.1 µM.

Question: For LAQCFFCFK [Sur 54-62], which C50 (HLA-A11 (human)) is on record?
Answer: Its C50 is 0.4 µM.
